Starred links: 1 amine or outer side, 2 acyl side, 3 side chain; linkers in the order of their positions; H or OH if unused. Positions of bridges follow the written chain, without caps; N, C: chain ends. TATA = O=C(CC[*:1])N1CN(C(=O)CC[*:2])CN(C(=O)CC[*:3])C1
Key:
Assay in all cases: enzyme inhibition
[1] = molecular target: T1, factor Xa (human, UniProt P00742 41-179; P00742 235-488)
T1 chain 1: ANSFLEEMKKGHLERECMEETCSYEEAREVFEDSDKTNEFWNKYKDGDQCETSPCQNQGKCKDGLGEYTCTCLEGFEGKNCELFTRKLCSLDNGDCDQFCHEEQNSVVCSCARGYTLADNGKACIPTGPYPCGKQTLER
T1 chain 2: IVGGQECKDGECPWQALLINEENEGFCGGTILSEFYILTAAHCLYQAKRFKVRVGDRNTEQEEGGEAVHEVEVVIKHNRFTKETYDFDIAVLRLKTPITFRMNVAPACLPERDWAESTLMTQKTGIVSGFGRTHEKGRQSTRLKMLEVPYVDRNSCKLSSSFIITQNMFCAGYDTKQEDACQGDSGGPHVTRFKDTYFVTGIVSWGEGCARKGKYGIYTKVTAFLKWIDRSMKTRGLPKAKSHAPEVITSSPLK

[2] = molecular target: uPA (human, UniProt P00749 21-431)
[3] = molecular target: human tissue-plasminogen activator (human, UniProt P00750 36-562)
[4] = molecular target: plasma kallikrein (human, UniProt P03952 20-638)
[5] = molecular target: factor XIa (human, UniProt P03951 19-625)
[6] = molecular target: T2, factor VIIa (human, UniProt P08709 61-466)
T2 chain: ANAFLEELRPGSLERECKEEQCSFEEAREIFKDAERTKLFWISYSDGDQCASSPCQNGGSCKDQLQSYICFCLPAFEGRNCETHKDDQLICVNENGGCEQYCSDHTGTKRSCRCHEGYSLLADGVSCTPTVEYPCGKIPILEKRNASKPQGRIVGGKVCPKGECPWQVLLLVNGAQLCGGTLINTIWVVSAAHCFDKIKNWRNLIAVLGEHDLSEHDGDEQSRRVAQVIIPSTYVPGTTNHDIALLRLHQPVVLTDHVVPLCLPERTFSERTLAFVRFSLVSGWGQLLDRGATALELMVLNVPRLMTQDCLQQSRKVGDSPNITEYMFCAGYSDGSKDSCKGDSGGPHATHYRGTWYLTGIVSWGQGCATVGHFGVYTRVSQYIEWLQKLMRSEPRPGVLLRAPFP

[7] = molecular target: thrombin (human, UniProt P00734 328-622)
[8] = molecular target: T3, plasmin (human, UniProt P00747 97-810)
T3 chain: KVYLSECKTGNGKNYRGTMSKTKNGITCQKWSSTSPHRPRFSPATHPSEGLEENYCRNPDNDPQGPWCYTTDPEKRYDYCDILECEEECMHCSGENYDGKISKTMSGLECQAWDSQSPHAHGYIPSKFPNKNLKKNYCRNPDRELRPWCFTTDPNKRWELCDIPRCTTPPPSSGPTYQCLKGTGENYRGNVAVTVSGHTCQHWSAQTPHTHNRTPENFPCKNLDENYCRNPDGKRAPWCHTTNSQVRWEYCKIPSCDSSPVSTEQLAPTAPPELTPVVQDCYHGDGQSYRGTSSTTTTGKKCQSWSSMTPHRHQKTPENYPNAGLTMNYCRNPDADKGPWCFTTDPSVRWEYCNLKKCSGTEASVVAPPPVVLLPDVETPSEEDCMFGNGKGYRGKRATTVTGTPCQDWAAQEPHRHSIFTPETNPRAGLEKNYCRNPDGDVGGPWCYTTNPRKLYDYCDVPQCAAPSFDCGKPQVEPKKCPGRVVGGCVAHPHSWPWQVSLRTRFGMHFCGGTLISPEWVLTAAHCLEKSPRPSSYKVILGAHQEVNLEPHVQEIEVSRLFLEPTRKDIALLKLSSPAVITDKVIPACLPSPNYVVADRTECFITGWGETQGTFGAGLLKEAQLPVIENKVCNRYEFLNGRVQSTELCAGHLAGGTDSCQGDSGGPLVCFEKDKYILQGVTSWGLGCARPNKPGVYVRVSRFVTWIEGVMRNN

Measured: Ki

Chain of human tissue-plasminogen activator (P00750 36-562): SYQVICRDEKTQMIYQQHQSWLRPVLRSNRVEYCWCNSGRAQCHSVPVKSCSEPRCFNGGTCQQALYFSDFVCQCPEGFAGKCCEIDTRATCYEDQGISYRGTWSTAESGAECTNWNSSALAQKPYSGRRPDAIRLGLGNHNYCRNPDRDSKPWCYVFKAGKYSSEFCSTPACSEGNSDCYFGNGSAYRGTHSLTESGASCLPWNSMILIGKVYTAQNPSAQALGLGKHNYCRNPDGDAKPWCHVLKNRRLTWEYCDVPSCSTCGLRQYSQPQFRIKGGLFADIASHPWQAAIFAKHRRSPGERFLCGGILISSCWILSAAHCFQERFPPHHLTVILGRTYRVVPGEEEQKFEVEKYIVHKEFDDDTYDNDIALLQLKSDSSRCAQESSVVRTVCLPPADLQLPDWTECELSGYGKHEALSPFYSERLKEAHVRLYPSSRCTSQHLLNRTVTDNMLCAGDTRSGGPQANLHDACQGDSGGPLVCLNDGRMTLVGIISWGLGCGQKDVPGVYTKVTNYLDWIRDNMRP
Chain of plasma kallikrein (P03952 20-638): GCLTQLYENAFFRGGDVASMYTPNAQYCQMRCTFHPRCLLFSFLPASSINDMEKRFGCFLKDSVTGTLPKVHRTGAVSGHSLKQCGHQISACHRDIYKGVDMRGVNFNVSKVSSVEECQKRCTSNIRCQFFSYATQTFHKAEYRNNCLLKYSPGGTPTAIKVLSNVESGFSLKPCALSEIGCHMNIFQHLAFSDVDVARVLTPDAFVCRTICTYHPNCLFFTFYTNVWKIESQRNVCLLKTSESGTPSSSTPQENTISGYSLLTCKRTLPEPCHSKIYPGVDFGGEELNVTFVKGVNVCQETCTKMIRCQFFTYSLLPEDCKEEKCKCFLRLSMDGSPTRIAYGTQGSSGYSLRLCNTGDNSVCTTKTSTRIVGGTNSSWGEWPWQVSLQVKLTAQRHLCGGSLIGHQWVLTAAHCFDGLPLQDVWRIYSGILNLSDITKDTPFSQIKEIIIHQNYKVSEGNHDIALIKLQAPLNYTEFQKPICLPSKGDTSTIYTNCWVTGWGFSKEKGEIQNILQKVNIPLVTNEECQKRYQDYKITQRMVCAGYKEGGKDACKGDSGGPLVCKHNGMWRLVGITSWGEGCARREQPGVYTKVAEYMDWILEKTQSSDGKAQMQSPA

H-RCFRLPCRQLRCR-NH2 (linker 2-7-12 via TATA) [FXII618]
> 50 µM: all assays above

— US20180118786A1 (published 2018)
